Data as given in PMC7948397, “A novel soluble complement receptor 1 fragment with enhanced therapeutic potential” (The Journal of Biological Chemistry, 2020).

What was measured:
[1] = biological target: T1, CR1 (soluble analyte of the reverse SPR experiment; construct not named) (human, UniProt P17927 42-1971); test: SPR; reverse format: C3b or C4b immobilised by amine coupling (230 RU, only 20% active), CR1 as analyte; apparent affinities; data not shown; conditions: both partners purified
T1 construct: human complement receptor 1, soluble
T1 sequence (P17927 42-1971): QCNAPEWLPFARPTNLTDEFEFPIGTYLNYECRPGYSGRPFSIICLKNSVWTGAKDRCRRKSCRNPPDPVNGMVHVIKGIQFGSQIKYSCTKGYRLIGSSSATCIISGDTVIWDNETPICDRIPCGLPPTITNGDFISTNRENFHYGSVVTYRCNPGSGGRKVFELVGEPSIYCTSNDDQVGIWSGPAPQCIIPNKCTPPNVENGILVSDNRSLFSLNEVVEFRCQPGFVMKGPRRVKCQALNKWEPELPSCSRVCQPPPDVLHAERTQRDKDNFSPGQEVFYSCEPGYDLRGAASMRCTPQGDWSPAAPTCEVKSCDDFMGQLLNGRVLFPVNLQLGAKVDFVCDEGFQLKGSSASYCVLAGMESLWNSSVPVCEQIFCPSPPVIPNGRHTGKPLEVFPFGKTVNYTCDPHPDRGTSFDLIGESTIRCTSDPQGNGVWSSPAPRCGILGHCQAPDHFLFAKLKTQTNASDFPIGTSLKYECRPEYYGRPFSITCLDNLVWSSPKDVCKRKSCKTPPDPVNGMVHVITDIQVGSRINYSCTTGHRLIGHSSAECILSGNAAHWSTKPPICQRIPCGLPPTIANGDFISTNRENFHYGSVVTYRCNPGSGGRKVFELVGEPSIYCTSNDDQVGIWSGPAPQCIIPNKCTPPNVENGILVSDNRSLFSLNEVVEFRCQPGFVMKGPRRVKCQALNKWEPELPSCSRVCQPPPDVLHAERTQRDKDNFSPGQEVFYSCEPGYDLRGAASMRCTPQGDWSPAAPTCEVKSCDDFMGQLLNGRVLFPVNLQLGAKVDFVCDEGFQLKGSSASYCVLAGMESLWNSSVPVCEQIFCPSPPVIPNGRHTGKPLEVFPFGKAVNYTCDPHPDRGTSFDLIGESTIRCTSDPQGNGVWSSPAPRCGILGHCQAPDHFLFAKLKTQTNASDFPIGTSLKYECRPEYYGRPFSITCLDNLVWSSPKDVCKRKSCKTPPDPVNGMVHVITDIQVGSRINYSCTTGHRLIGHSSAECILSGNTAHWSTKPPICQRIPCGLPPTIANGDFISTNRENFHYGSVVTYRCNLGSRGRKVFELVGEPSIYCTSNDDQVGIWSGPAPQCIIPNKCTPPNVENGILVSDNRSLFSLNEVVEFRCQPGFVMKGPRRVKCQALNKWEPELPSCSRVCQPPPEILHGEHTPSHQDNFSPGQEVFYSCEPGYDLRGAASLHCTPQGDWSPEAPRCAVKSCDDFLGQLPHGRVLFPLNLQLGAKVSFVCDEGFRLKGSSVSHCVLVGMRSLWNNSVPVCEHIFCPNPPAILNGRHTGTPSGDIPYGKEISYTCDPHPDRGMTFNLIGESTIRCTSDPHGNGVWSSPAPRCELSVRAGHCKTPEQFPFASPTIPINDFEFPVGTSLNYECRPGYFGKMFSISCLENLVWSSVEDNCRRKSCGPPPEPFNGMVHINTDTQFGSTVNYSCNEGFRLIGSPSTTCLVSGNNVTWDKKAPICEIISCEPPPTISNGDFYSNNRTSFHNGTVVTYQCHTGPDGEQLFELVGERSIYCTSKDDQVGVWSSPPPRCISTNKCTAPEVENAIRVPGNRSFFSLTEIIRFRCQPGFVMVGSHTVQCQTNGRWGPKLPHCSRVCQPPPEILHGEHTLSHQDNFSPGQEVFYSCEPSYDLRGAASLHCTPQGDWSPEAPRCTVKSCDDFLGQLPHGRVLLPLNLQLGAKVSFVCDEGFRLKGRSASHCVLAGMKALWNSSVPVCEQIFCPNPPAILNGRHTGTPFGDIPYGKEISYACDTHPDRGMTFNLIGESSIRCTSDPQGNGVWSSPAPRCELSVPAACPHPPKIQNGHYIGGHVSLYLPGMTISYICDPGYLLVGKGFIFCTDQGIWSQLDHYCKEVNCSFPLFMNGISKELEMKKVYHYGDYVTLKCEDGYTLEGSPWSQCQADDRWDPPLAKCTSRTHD

plasma-derived human C3b = biological target: T2, plasma-derived human C3b (human, UniProt P01024 23-667; P01024 749-1663); test: SPR; His-tagged CSL040 or HuCR1(1971) captured on a Ni-NTA chip to 75-100 RU, C3b or C4b injected as analyte; Biacore T200, 37 °C; 10 mM Hepes, 150 mM NaCl, 0.1% bovine serum albumin, pH 7.3; 1:1 model with a term for mass transport; conditions: both partners purified
T2 construct: human complement C3, beta chain; human complement C3b, alpha' chain (C3 alpha chain without C3a); source: bought: Complement Technology, plasma-derived
T2 sequence (P01024 23-667, chain 1 of 2): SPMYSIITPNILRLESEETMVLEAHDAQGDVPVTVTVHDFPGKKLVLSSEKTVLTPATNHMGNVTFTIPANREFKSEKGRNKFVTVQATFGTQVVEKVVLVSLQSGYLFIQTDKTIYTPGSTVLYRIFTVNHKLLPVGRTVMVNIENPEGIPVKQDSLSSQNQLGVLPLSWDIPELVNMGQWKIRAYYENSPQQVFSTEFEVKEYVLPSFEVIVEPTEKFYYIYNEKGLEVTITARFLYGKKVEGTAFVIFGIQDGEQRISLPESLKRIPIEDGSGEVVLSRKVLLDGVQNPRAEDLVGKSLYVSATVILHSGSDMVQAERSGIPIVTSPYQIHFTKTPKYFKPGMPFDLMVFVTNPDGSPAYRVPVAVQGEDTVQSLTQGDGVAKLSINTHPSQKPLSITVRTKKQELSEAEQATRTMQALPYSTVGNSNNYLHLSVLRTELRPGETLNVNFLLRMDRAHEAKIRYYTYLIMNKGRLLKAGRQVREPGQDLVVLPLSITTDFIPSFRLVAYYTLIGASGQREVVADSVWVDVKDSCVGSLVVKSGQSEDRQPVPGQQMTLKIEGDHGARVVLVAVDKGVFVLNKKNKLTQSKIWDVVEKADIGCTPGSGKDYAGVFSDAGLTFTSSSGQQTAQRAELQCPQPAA
T2 sequence (P01024 749-1663, chain 2 of 2): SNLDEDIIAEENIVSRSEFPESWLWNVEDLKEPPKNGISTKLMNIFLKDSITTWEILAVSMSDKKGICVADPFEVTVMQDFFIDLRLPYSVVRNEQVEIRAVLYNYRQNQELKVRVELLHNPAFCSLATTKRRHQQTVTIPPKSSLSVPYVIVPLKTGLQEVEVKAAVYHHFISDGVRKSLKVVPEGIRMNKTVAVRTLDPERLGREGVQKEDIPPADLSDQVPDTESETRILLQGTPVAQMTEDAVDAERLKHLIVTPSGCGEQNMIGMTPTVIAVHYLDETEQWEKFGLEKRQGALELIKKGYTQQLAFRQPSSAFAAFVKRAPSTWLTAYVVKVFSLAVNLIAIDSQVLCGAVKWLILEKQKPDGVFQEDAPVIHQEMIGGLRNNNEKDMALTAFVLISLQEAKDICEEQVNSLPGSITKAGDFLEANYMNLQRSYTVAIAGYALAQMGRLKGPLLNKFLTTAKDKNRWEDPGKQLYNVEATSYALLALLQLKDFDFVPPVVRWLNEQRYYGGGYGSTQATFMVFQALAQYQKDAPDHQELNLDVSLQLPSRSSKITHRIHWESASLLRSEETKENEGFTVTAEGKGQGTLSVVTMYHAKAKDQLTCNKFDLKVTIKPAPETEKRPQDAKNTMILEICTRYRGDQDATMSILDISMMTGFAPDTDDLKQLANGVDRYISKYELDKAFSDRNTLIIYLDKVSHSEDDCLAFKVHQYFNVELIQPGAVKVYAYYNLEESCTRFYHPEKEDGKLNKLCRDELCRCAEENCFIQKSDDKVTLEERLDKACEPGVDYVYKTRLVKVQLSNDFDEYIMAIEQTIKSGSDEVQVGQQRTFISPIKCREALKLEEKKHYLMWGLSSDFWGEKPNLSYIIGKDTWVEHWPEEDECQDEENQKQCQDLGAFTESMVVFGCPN

Kd [1]	Kd (plasma-derived human C3b)	koff (plasma-derived human C3b)	kon (plasma-derived human C3b)	Binder
~4900 nM	–	–	–	plasma-derived human C4b (ligand, human complement C4, beta chain; human complement C4b, alpha' chain (C4 alpha chain without C4a); human complement C4, gamma chain; Plasma-derived C4b is likely a mixture of C4A and C4B forms; source: bought: Complement Technology, plasma-derived; copies: + +) chain 1: KPRLLLFSPSVVHLGVPLSVGVQLQDVPRGQVVKGSVFLRNPSRNNVPCSPKVDFTLSSERDFALLSLQVPLKDAKSCGLHQLLRGPEVQLVAHSPWLKDSLSRTTNIQGINLLFSSRRGHLFLQTDQPIYNPGQRVRYRVFALDQKMRPSTDTITVMVENSHGLRVRKKEVYMPSSIFQDDFVIPDISEPGTWKISARFSDGLESNSSTQFEVKKYVLPNFEVKITPGKPYILTVPGHLDEMQLDIQARYIYGKPVQGVAYVRFGLLDEDGKKTFFRGLESQTKLVNGQSHISLSKAEFQDALEKLNMGITDLQGLRLYVAAAIIESPGGEMEEAELTSWYFVSSPFSLDLSKTKRHLVPGAPFLLQALVREMSGSPASGIPVKVSATVSSPGSVPEVQDIQQNTDGSGQVSIPIIIPQTISELQLSVSAGSPHPAIARLTVAAPPSGGPGFLSIERPDSRPPRVGDTLNLNLRAVGSGATFSHYYYMILSRGQIVFMNREPKRTLTSVSVFVDHHLAPSFYFVAFYYHGDHPVANSLRVDVQAGACEGKLELSVDGAKQYRNGESVKLHLETDSLALVALGALDTALYAAGSKSHKPLNMGKVFEAMNSYDLGCGPGGGDSALQVFQAAGLAFSDGDQWTLSRKRLSCPKEKTT chain 2: ALEILQEEDLIDEDDIPVRSFFPENWLWRVETVDRFQILTLWLPDSLTTWEIHGLSLSKTKGLCVATPVQLRVFREFHLHLRLPMSVRRFEQLELRPVLYNYLDKNLTVSVHVSPVEGLCLAGGGGLAQQVLVPAGSARPVAFSVVPTAAAAVSLKVVARGSFEFPVGDAVSKVLQIEKEGAIHREELVYELNPLDHRGRTLEIPGNSDPNMIPDGDFNSYVRVTASDPLDTLGSEGALSPGGVASLLRLPRGCGEQTMIYLAPTLAASRYLDKTEQWSTLPPETKDHAVDLIQKGYMRIQQFRKADGSYAAWLSRDSSTWLTAFVLKVLSLAQEQVGGSPEKLQETSNWLLSQQQADGSFQDPCPVLDRSMQGGLVGNDETVALTAFVTIALHHGLAVFQDEGAEPLKQRVEASISKANSFLGEKASAGLLGAHAAAITAYALTLTKAPVDLLGVAHNNLMAMAQETGDNLYWGSVTGSQSNAVSPTPAPRNPSDPMPQAPALWIETTAYALLHLLLHEGKAEMADQASAWLTRQGSFQGGFRSTQDTVIALDALSAYWIASHTTEERGLNVTLSSTGRNGFKSHALQLNNRQIRGLEEELQFSLGSKINVKVGGNSKGTLKVLRTYNVLDMKNTTCQDLQIEVTVKGHVEYTMEANEDYEDYEYDELPAKDDPDAPLQPVTPLQLFEG chain 3: EAPKVVEEQESRVHYTVCIWRNGKVGLSGMAIADVTLLSGFHALRADLEKLTSLSDRYVSHFETEGPHVLLYFDSVPTSRECVGFEAVQEVPVGLVQPASATLYDYYNPERRCSVFYGAPSKSRLLATLCSAEVCQCAEGKCPRQRRALERGLQDEDGYRMKFACYYPRVEYGFQVKVLREDSRAAFRLFETKITQVLHFTKDVKAAANQMRNFLVRASCRLRLEPGKEYLIMGLDGATYDLEGHPQYLLDSNSWIEEMPSERLCRSTRQRAACAQLNDFLQEYGTQGCQV
–	265 nM	0.00654 s⁻¹	24800 M⁻¹ s⁻¹	HuCR1(1392)/CSL040, soluble human complement receptor 1 truncated at amino acid 1392 (LHR-A, LHR-B and LHR-C) (receptor, signal peptide in the construct; human complement receptor 1 (HuCR1, CD35), endogenous signal peptide, ends at amino acid 1392 (LHR-A, LHR-B, LHR-C; lacks LHR-D); amino acid numbering based on Met + 1; cDNA GenBank NP_000564, codon optimised; N-glycosylated, highly sialylated; A version without the His-tag was also made, but the SPR used the His-tagged protein; also called LHR-ABC; not shown: …) not shown
